Where a chain is given by its changes, count along the chain named.

Data on twelve molecules can be found in US20120114652A1 (AbbVie / Abbott, published 2012).

B1: Antibody 01, IgG1, not germlined (antibody, V domains shown)
VH: QVQLVQSGAEVKKPGSSVKVSCKASGGTFSSYAISWVRQAPGQGLEWMGGIIPIFGTANYAQKFQGRVTITADESTSTAYMELSSLRSEDTAVYYCAREKRQWLEGHFDYWGRGTLVTVSS
VL: DIQMTQSPSTLSASVGDRVTITCRASEGIYRSLAWYQQKPGKAPKLLIYKASSLASGVPSRFSGSGSGTEFTLTISSLQPDDFATYYCQQYSNYPLTFGGGTKVEIK
B2: Antibody 27, scFv (scFv, V domains shown)
VH: B1 VH with V5Q, T28A, I54T, S85G, L116P
VL: B1 VL with T10F, V15I, R31H, S32N, K50R, V58A, E70D, V104L
B3: Antibody 16, scFv (scFv, V domains shown)
VH: B1 VH with I54T
VL: B1 VL with G28S, R31H, G66R
B4: Antibody 09, scFv (scFv, V domains shown)
VH: B1 VH with V5Q, I54A, G56D, S85G, L116P
VL: B1 VL with T10F, V15I, R24Q, R31H, S32N, K50R, V58A, E70D, V104L
B5: Antibody 20, scFv (scFv, V domains shown)
VH: B1 VH with V5Q, I54T
VL: B1 VL with R31H, S32E, K50R, G66R, N93D
B6: Antibody 02, IgG1, not germlined (antibody, V domains shown)
VH: B1 VH with I54T
VL: B1 VL with R31H, N93D
B7: Antibody 15, scFv (scFv, V domains shown)
VH: B1 VH with V5Q, I54T, S85G, L116P
VL: B1 VL with T5A, T10F, V15I, R31H, S32N, K50R, V58A, E70D, V104L, K107R
B8: Antibody 18, scFv (scFv, V domains shown)
VH: B1 VH with V5Q, I54T, F64L, S85G, L116P
VL: B1 VL with T10F, V15I, R31H, S32A, K50R, V58A, E70D, V104L
B9: Antibody 01, IgG4, not germlined (antibody, V domains shown)
VH: B1 VH
VL: B1 VL
notes: whole IgG4; also called Ab 01
B10: Antibody 02, IgG4, not germlined (antibody, V domains shown)
VH: B1 VH with I54T
VL: B1 VL with R31H, N93D
notes: whole IgG4; also called Ab 02
B11: rat PAI-1 (other)
chain: SPLPESHTAQQATNFGVKVFQHVVQASKDRNVVFSPYGVSSVLAMLQLTTAGKTRQQIQDAMGFNISERGTAPALRKLSKELMGSWNKNEISTADAIFVQRDLELVQGFMPHFFKLFRTTVKQVDFSEVERARFIINDWVERHTKGMISDLLAKGAVNELTRLVLVNALYFNGQWKTPFLEASTHQRLFHKSDGSTISVPMMAQNNKFNYTEFTTPDGHEYDILELPYHGETLSMFIAAPFEKDVPLSAITNILDAELIRQWKSNMTRLPRLLILPKFSLETEVDLRGPLEKLGMTDIFSSTQADFTSLSDQEQLSVAQALQKVKIEVNESGTVASSSTAILVSARMAPTEMVLDRSFLFVVRHNPTETILFMGQLMEP
notes: bought (US Biological)
B12: mouse PAI-1 (other)
chain: ALPLRESHTAHQATDFGVKVFQQVVQASKDRNVVFSPYGVSSVLAMLQMTTAGKTRRQIQDAMGFKVNEKGTAHALRQLSKELMGPWNKNEISTADAIFVQRDLELVQGFMPHFFKLFQTMVKQVDFSEVERARFIINDWVERHTKGMINDLLAKGAVDELTRLVLVNALYFSGQWKTPFLEASTHQRLFHKSDGSTVSVPMMAQSNKFNYTEFTTPDGLEYDVVELPYQGDTLSMFIAAPFEKDVHLSALTNILDAELIRQWKGNMTRLPRLLILPKFSLETEVDLRGPLEKLGMPDMFSATLADFTSLSDQEQLSVAQALQKVRIEVNESGTVASSSTAFVISARMAPTEMVIDRSFLFVVRHNPTETILFMGQVMES
notes: bought (US Biological); also called murine PAI-1

In one assay the target is B12. Description: cell-based or functional assay.
On to B1, for which the “IC50 HT-1080 Exo PAI-1” value came to 15.8 nM.

For the molecule B2, the “IC50 HT-1080 Exo PAI-1” value amounted to 16.4 nM.

For B3, the “IC50 HT-1080 Exo PAI-1” value turned out to be 17.6 nM.

On to B4, for which the “IC50 HT-1080 Exo PAI-1” value turned out to be 21 nM.

As to B5, the “IC50 HT-1080 Exo PAI-1” value stood at 18.1 nM.

As to B6, the “IC50 HT-1080 Exo PAI-1” value was 10.9 nM.

With B7, the “IC50 HT-1080 Exo PAI-1” value stood at 37 nM.

A further assay has as its target T1, human PAI-1, active, wild-type, non-glycosylated (E. coli-derived) (human, UniProt P05121 24-402). The experiment in a line: cell-based or functional assay.
As to B1, the “IC50 HT-1080 Exo PAI-1” value worked out at 11.2 nM.

On to B2, for which the “IC50 HT-1080 Exo PAI-1” value amounted to 18.8 nM.

Regarding B3, the “IC50 HT-1080 Exo PAI-1” value turned out to be 16.9 nM.

B4: the “IC50 HT-1080 Exo PAI-1” value was 23 nM.

For the molecule B5, the “IC50 HT-1080 Exo PAI-1” value was found to be 19.1 nM.

Regarding B6, the “IC50 HT-1080 Exo PAI-1” value turned out to be 8.7 nM.

Consider B7, for which the “IC50 HT-1080 Exo PAI-1” value stood at 36 nM.

Another assay addresses B11. Description: cell-based or functional assay.
As to B2, the “IC50 HT-1080 Exo PAI-1” value turned out to be 33.8 nM.

With B3, the “IC50 HT-1080 Exo PAI-1” value was 52.6 nM.

As for B4, the “IC50 HT-1080 Exo PAI-1” value stood at 52.7 nM.

As for B5, the “IC50 HT-1080 Exo PAI-1” value is 42.4 nM.

Take B8: the “IC50 HT-1080 Exo PAI-1” value was 37 nM.

On to B7, for which the “IC50 HT-1080 Exo PAI-1” value turned out to be 57 nM.

The target in another assay is T2, rabbit PAI-1 (rabbit).
T2 chain: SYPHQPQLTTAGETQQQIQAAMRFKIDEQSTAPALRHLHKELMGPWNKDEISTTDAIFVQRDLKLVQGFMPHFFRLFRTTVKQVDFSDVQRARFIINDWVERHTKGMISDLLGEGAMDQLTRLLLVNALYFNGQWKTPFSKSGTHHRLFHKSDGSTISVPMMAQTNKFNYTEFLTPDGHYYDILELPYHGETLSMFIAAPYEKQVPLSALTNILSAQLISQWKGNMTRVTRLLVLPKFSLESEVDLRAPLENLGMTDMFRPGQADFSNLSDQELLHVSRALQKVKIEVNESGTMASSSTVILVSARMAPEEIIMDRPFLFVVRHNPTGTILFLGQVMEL
The experiment in a line: competition ELISA (DELFIA), IgG coated, competitor titrated against biotinylated active human PAI-1. For orientation: An ELISA detects its analyte on a solid surface through an enzyme-linked reagent.
Turning to B9, the IC50 ratio rabbit/wt was 9.

For B10, the IC50 ratio rabbit/wt was 4.8.

In the next assay the target is PICK167_A01 IgG1. The experiment in a line: competition ELISA (DELFIA): PICK167_A01 IgG1 coated on the plate, binding of biotinylated human PAI-1 detected with streptavidin-Eu3+ in the presence of a titration of the unlabelled test antigen (the varied molecule).
Turning to B11, the “IC50 (read off the curve)” value was about 2 nM.

B12: the “IC50 (read off the curve)” value was about 4 nM.

A further assay concerns the target glycosylated active human PAI-1 produced by CHO cells (human, UniProt P05121 24-402, N-glycosylated (CHO-produced)). The experiment in a line: cell-based or functional assay.
Turning to B1, the “IC50 chromogenic, hu glyco” value is 1.7 nM.

In the case of B6, the “IC50 chromogenic, hu glyco” value was 1.5 nM.

For the next assay, the target named is T3, PICK167_A01-fgl IgG1 (CAT-1001).
T3 construct: fully germlined variant, made as an IgG1 only; also called PICK67A01-fgl
Description: competition ELISA (DELFIA): PICK167_A01-fgl IgG1 (CAT-1001) coated on the plate, binding of biotinylated human PAI-1 detected with streptavidin-Eu3+ in the presence of a titration of the unlabelled test antigen (the varied molecule).
Consider B11, for which the “IC50 (read off the curve)” value was about 1 nM.

B12: the “IC50 (read off the curve)” value is about 2 nM.

For a further assay, the target named is B12. Description: cell-based or functional assay. This is another data set of the same source.
As for B1, the IC50 chromogenic was determined as 30 nM and the IC50 ratio mouse/human stood at 20.

In turn, B3 had an IC50 chromogenic of 4.3 nM.

B5 registered an IC50 chromogenic of 4.9 nM.

On to B8, for which the IC50 chromogenic came out at 319 nM and the IC50 ratio mouse/human is 255.

Take B6: the IC50 chromogenic was found to be 167 nM and the IC50 ratio mouse/human came to 104.

In the case of B7, the IC50 chromogenic stood at 66.9 nM and the IC50 ratio mouse/human is 9.3.

Another assay addresses T4, cynomolgus PAI-1 (cynomolgus, UniProt P05121 24-402 (human entry), limits assumed). The experiment in a line: cell-based or functional assay.
With B1, the IC50 chromogenic stood at 0.7 nM and the IC50 ratio cyno/human was 0.4.

For B2, the IC50 chromogenic is 2.2 nM.

Molecule B4 registered an IC50 chromogenic of 0.7 nM.

B5: the IC50 chromogenic was 1.3 nM.

For B8, the IC50 chromogenic was 0.5 nM and the IC50 ratio cyno/human was 0.4.

As to B7, the IC50 chromogenic came out at 2.2 nM and the IC50 ratio cyno/human amounted to 0.3.

The target in the next assay is T1, human PAI-1, active, wild-type, …. The experiment in a line: cell-based or functional assay. This is another data set of the same source.
Molecule B1 yielded an IC50 chromogenic of 1.5 nM.

In the case of B8, the IC50 chromogenic came out at 1.3 nM.

Consider B6, for which the IC50 chromogenic came to 1.6 nM.

Consider B7, for which the IC50 chromogenic came out at 7.2 nM.

The target of the next assay is B11. The experiment in a line: cell-based or functional assay. The source holds these as a separate data set.
As for B1, the IC50 chromogenic turned out to be 99.3 nM and the IC50 ratio rat/human amounted to 66.2.

In turn, B2 came in with an IC50 chromogenic of 49.8 nM.

Consider B3, for which the IC50 chromogenic is 5.6 nM.

Take B4: the IC50 chromogenic came to 29.7 nM.

For the molecule B8, the IC50 chromogenic worked out at 238 nM and the IC50 ratio rat/human was 190.

As to B6, the IC50 chromogenic is 510 nM and the IC50 ratio rat/human came to 317.

On to B7, for which the IC50 chromogenic turned out to be 64.2 nM and the IC50 ratio rat/human is 8.9.

The target of a further assay is T4, cynomolgus PAI-1. The experiment in a line: cell-based or functional assay. The source holds these as a separate data set.
For the molecule B3, the “IC50 chromogenic (FIG. 2b)” value was 0.8 nM.

The target of another assay is T1, human PAI-1, active, wild-type, …. Description: cell-based or functional assay. This is another data set of the same source.
For B3, the “IC50 chromogenic (FIG. 2a)” value worked out at 3.6 nM.

The next assay addresses B11. Description: cell-based or functional assay. The source holds these as a separate data set.
For B8, the “fold higher IC50 in the rat chromogenic assay, against the human assay” value is about 180 fold.
